Laboratory results as given in article PMC7289447.

T1: Hsc20 Q46Bpa, P53193
T1 chain: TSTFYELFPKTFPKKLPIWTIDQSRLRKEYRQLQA

T2: Hsc20 M51Bpa, P53193
T2 chain: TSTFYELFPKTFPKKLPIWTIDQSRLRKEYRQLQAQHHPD


Experiments:
[1] = biological target: T1, Hsc20 Q46Bpa, P53193; assay: site-specific Bpa photo-crosslinking, SDS-PAGE band quantification; details: chain shown with the change; in the presence of ATP; UV irradiation; parent: est. 1.0; read off a plot
[2] = biological target: T2, Hsc20 M51Bpa, P53193; assay: as above; details: chain shown with the change; in the presence of ATP; UV irradiation; parent: est. 1.0; read off a plot

ratio to parent [1] | ratio to parent [2] | Binder
0.22 | 0.11 | Ssq1 wild-type D246A; E253A (protein) MLKSGRLNFLKLNINSRLLYSTNPQLTKKVIGIDLGTTNSAVAYIRDSNDKKSATIIENDEGQRTTPSIVAFDVKSSPQNKDQMKTLVGMAAKRQNAINSENTFFATKRLIGRAFNDKEVQRDMAVMPYKIVKCESNGQAYLSTSNGLIQSPSQIASILLKYLKQTSEEYLGEKVNLAVITVPAYFNDSQRQATKDAGKLAGLNVLRVINEPTAAALSFGIDDKRNNGLIAVYDLGGGTFDISILAIEDGVFAVRATNGDTHLGGEDFDNVIVNYIIDTFIHENPEITREEITKNRETMQRLKDVSERAKIDLSHVKKTFIELPFVYKSKHLRVPMTEEELDNMTLSLINRTIPPVKQALKDADIEPEDIDEVILVGGMTRMPKIRSVVKDLFGKSPNSSVNPDETVALGAAIQGGILSGEIKNVLLLDVTPLTLGIETFGGAFSPLIPRNTTVPVKKTEIFSTGVDGQAGVDIKVFQGERGLVRNNKLIGDLKLTGITPLPKGIPQIYVTFDIDADGIINVSAAEKSSGKQQSITVIPNSGLSEEEIAKLIEEANANRAQDNLIRQRLELISKADIMISDTENLFKRYEKLISSEKEYSNIVEDIKALRQAIKNFKANENDMSIDVNGIKKATDALQGRALKLFQSATKNQQNQGK
0.28 | 0.22 | Ssq1 wild-type E248A; D249A (protein) MLKSGRLNFLKLNINSRLLYSTNPQLTKKVIGIDLGTTNSAVAYIRDSNDKKSATIIENDEGQRTTPSIVAFDVKSSPQNKDQMKTLVGMAAKRQNAINSENTFFATKRLIGRAFNDKEVQRDMAVMPYKIVKCESNGQAYLSTSNGLIQSPSQIASILLKYLKQTSEEYLGEKVNLAVITVPAYFNDSQRQATKDAGKLAGLNVLRVINEPTAAALSFGIDDKRNNGLIAVYDLGGGTFDISILDIAAGVFEVRATNGDTHLGGEDFDNVIVNYIIDTFIHENPEITREEITKNRETMQRLKDVSERAKIDLSHVKKTFIELPFVYKSKHLRVPMTEEELDNMTLSLINRTIPPVKQALKDADIEPEDIDEVILVGGMTRMPKIRSVVKDLFGKSPNSSVNPDETVALGAAIQGGILSGEIKNVLLLDVTPLTLGIETFGGAFSPLIPRNTTVPVKKTEIFSTGVDGQAGVDIKVFQGERGLVRNNKLIGDLKLTGITPLPKGIPQIYVTFDIDADGIINVSAAEKSSGKQQSITVIPNSGLSEEEIAKLIEEANANRAQDNLIRQRLELISKADIMISDTENLFKRYEKLISSEKEYSNIVEDIKALRQAIKNFKANENDMSIDVNGIKKATDALQGRALKLFQSATKNQQNQGK
